Assay results published in publication PMC8580825, “Scaffolding protein CcmM directs multiprotein phase separation in β-carboxysome biogenesis” (Nature Structural & Molecular Biology, 2021).

B1: γCAL domain of M58 (residues 1-198) (domain or fragment, Synechococcus elongatus PCC 7942, UniProt Q03513 1-198, looked up)
chain: MPSPTTVPVATAGRLAEPYIDPAAQVHAIASIIGDVRIAAGVRVAAGVSIRADEGAPFQVGKESILQEGAVIHGLEYGRVLGDDQADYSVWIGQRVAITHKALIHGPAYLGDDCFVGFRSTVFNARVGAGSVIMMHALVQDVEIPPGRYVPSGAIITTQQQADRLPEVRPEDREFARHIIGSPPVIVRSTPAATADFH
notes: also called γCAL198; source: E. coli BL21 (DE3), purified (Ni-NTA, H6Ub cleaved, SEC); not shown: His6-ubiquitin, N-terminal, cleaved

How the values were obtained:
[1] = target: SeM58-R367D (Synechococcus elongatus PCC 7942) (UniProt Q03513); experiment: SEC-MALS; 2 mg/ml protein; 50 mM Tris-HCl pH 8.0/150 mM KCl or 50 mM Tris-HCl pH 8.0/500 mM KCl/5 mM DTT; 25 °C; oligomeric state in solution
[2] = target: SeM58-R298D (Synechococcus elongatus PCC 7942) (UniProt Q03513); experiment: as above
[3] = target: SeM58-R481D (Synechococcus elongatus PCC 7942) (UniProt Q03513); experiment: as above
[4] = target: SeM58-R251D (Synechococcus elongatus PCC 7942) (UniProt Q03513); experiment: as above
[5] = target: SeM58-R252D (Synechococcus elongatus PCC 7942) (UniProt Q03513); experiment: as above
[6] = target: the molecule itself; experiment: as above
[7] = target: B1; experiment: ITC; EGFPC2_(17) (365 μM) in the syringe titrated into γCAL(1–198) (14 μM); 20 °C; 50 mM Tris pH 8.0/100 mM KCl/10 mM Mg(OAc)2; one-site binding model; conditions: both partners purified

Molecule	stoichiometry N [6]	other results
SeM58-R367D (from UniProt Q03513 1-539) (natural protein)		stoichiometry N [1]: 3
SeM58-R298D (from UniProt Q03513 1-539) (natural protein)		stoichiometry N [2]: 3
SeM58-R481D (from UniProt Q03513 1-539) (natural protein)		stoichiometry N [3]: 3
SeM58-R251D (from UniProt Q03513 1-539) (natural protein)		stoichiometry N [4]: 3
SeM58-R252D (from UniProt Q03513 1-539) (natural protein)		stoichiometry N [5]: 3
SeM58-E303K (natural protein, Synechococcus elongatus PCC 7942, UniProt Q03513 1-539, looked up, CcmM (M58), Synechococcus elongatus PCC 7942, point mutant in SSUL1; source: E. coli BL21 (DE3), purified as wild-type M58; not shown: His6-ubiquitin, N-terminal, cleaved) MPSPTTVPVATAGRLAEPYIDPAAQVHAIASIIGDVRIAAGVRVAAGVSIRADEGAPFQVGKESILQEGAVIHGLEYGRVLGDDQADYSVWIGQRVAITHKALIHGPAYLGDDCFVGFRSTVFNARVGAGSVIMMHALVQDVEIPPGRYVPSGAIITTQQQADRLPEVRPEDREFARHIIGSPPVIVRSTPAATADFHSTPTPSPLRPSSSEATTVSAYNGQGRLSSEVITQVRSLLNQGYRIGTEHADKRRFRTSSWQPCAPIQSTNERQVLSELENCLSEHEGEYVRLLGIDTNTRSRVFKALIQRPDGSVPESLGSQPVAVASGGGRQSSYASVSGNLSAEVVNKVRNLLAQGYRIGTEHADKRRFRTSSWQSCAPIQSSNERQVLAELENCLSEHEGEYVRLLGIDTASRSRVFEALIQDPQGPVGSAKAAAAPVSSATPSSHSYTSNGSSSSDVAGQVRGLLAQGYRISAEVADKRRFQTSSWQSLPALSGQSEATVLPALESILQEHKGKYVRLIGIDPAARRRVAELLIQKP	3	
SeM58-D21K (natural protein, Synechococcus elongatus PCC 7942, UniProt Q03513 1-539, looked up, CcmM (M58), Synechococcus elongatus PCC 7942, point mutant in the γCAL domain; source: E. coli BL21 (DE3), purified as wild-type M58; not shown: His6-ubiquitin, N-terminal, cleaved) MPSPTTVPVATAGRLAEPYIKPAAQVHAIASIIGDVRIAAGVRVAAGVSIRADEGAPFQVGKESILQEGAVIHGLEYGRVLGDDQADYSVWIGQRVAITHKALIHGPAYLGDDCFVGFRSTVFNARVGAGSVIMMHALVQDVEIPPGRYVPSGAIITTQQQADRLPEVRPEDREFARHIIGSPPVIVRSTPAATADFHSTPTPSPLRPSSSEATTVSAYNGQGRLSSEVITQVRSLLNQGYRIGTEHADKRRFRTSSWQPCAPIQSTNERQVLSELENCLSEHEGEYVRLLGIDTNTRSRVFEALIQRPDGSVPESLGSQPVAVASGGGRQSSYASVSGNLSAEVVNKVRNLLAQGYRIGTEHADKRRFRTSSWQSCAPIQSSNERQVLAELENCLSEHEGEYVRLLGIDTASRSRVFEALIQDPQGPVGSAKAAAAPVSSATPSSHSYTSNGSSSSDVAGQVRGLLAQGYRISAEVADKRRFQTSSWQSLPALSGQSEATVLPALESILQEHKGKYVRLIGIDPAARRRVAELLIQKP	3	
SeM58-E17K (natural protein, Synechococcus elongatus PCC 7942, UniProt Q03513 1-539, looked up, CcmM (M58), Synechococcus elongatus PCC 7942, point mutant in the γCAL domain; source: E. coli BL21 (DE3), purified as wild-type M58; not shown: His6-ubiquitin, N-terminal, cleaved) MPSPTTVPVATAGRLAKPYIDPAAQVHAIASIIGDVRIAAGVRVAAGVSIRADEGAPFQVGKESILQEGAVIHGLEYGRVLGDDQADYSVWIGQRVAITHKALIHGPAYLGDDCFVGFRSTVFNARVGAGSVIMMHALVQDVEIPPGRYVPSGAIITTQQQADRLPEVRPEDREFARHIIGSPPVIVRSTPAATADFHSTPTPSPLRPSSSEATTVSAYNGQGRLSSEVITQVRSLLNQGYRIGTEHADKRRFRTSSWQPCAPIQSTNERQVLSELENCLSEHEGEYVRLLGIDTNTRSRVFEALIQRPDGSVPESLGSQPVAVASGGGRQSSYASVSGNLSAEVVNKVRNLLAQGYRIGTEHADKRRFRTSSWQSCAPIQSSNERQVLAELENCLSEHEGEYVRLLGIDTASRSRVFEALIQDPQGPVGSAKAAAAPVSSATPSSHSYTSNGSSSSDVAGQVRGLLAQGYRISAEVADKRRFQTSSWQSLPALSGQSEATVLPALESILQEHKGKYVRLIGIDPAARRRVAELLIQKP	3	
SeM58-D35K (natural protein, Synechococcus elongatus PCC 7942, UniProt Q03513 1-539, looked up, CcmM (M58), Synechococcus elongatus PCC 7942, point mutant in the γCAL domain; source: E. coli BL21 (DE3), purified as wild-type M58; not shown: His6-ubiquitin, N-terminal, cleaved) MPSPTTVPVATAGRLAEPYIDPAAQVHAIASIIGKVRIAAGVRVAAGVSIRADEGAPFQVGKESILQEGAVIHGLEYGRVLGDDQADYSVWIGQRVAITHKALIHGPAYLGDDCFVGFRSTVFNARVGAGSVIMMHALVQDVEIPPGRYVPSGAIITTQQQADRLPEVRPEDREFARHIIGSPPVIVRSTPAATADFHSTPTPSPLRPSSSEATTVSAYNGQGRLSSEVITQVRSLLNQGYRIGTEHADKRRFRTSSWQPCAPIQSTNERQVLSELENCLSEHEGEYVRLLGIDTNTRSRVFEALIQRPDGSVPESLGSQPVAVASGGGRQSSYASVSGNLSAEVVNKVRNLLAQGYRIGTEHADKRRFRTSSWQSCAPIQSSNERQVLAELENCLSEHEGEYVRLLGIDTASRSRVFEALIQDPQGPVGSAKAAAAPVSSATPSSHSYTSNGSSSSDVAGQVRGLLAQGYRISAEVADKRRFQTSSWQSLPALSGQSEATVLPALESILQEHKGKYVRLIGIDPAARRRVAELLIQKP	3	
SeM58-R37D (natural protein, Synechococcus elongatus PCC 7942, UniProt Q03513 1-539, looked up, CcmM (M58), Synechococcus elongatus PCC 7942, point mutant in the γCAL domain; source: E. coli BL21 (DE3), purified as wild-type M58; not shown: His6-ubiquitin, N-terminal, cleaved) MPSPTTVPVATAGRLAEPYIDPAAQVHAIASIIGDVDIAAGVRVAAGVSIRADEGAPFQVGKESILQEGAVIHGLEYGRVLGDDQADYSVWIGQRVAITHKALIHGPAYLGDDCFVGFRSTVFNARVGAGSVIMMHALVQDVEIPPGRYVPSGAIITTQQQADRLPEVRPEDREFARHIIGSPPVIVRSTPAATADFHSTPTPSPLRPSSSEATTVSAYNGQGRLSSEVITQVRSLLNQGYRIGTEHADKRRFRTSSWQPCAPIQSTNERQVLSELENCLSEHEGEYVRLLGIDTNTRSRVFEALIQRPDGSVPESLGSQPVAVASGGGRQSSYASVSGNLSAEVVNKVRNLLAQGYRIGTEHADKRRFRTSSWQSCAPIQSSNERQVLAELENCLSEHEGEYVRLLGIDTASRSRVFEALIQDPQGPVGSAKAAAAPVSSATPSSHSYTSNGSSSSDVAGQVRGLLAQGYRISAEVADKRRFQTSSWQSLPALSGQSEATVLPALESILQEHKGKYVRLIGIDPAARRRVAELLIQKP	3	
SeM58-R43D (natural protein, Synechococcus elongatus PCC 7942, UniProt Q03513 1-539, looked up, CcmM (M58), Synechococcus elongatus PCC 7942, point mutant in the γCAL domain; source: E. coli BL21 (DE3), purified as wild-type M58; not shown: His6-ubiquitin, N-terminal, cleaved) MPSPTTVPVATAGRLAEPYIDPAAQVHAIASIIGDVRIAAGVDVAAGVSIRADEGAPFQVGKESILQEGAVIHGLEYGRVLGDDQADYSVWIGQRVAITHKALIHGPAYLGDDCFVGFRSTVFNARVGAGSVIMMHALVQDVEIPPGRYVPSGAIITTQQQADRLPEVRPEDREFARHIIGSPPVIVRSTPAATADFHSTPTPSPLRPSSSEATTVSAYNGQGRLSSEVITQVRSLLNQGYRIGTEHADKRRFRTSSWQPCAPIQSTNERQVLSELENCLSEHEGEYVRLLGIDTNTRSRVFEALIQRPDGSVPESLGSQPVAVASGGGRQSSYASVSGNLSAEVVNKVRNLLAQGYRIGTEHADKRRFRTSSWQSCAPIQSSNERQVLAELENCLSEHEGEYVRLLGIDTASRSRVFEALIQDPQGPVGSAKAAAAPVSSATPSSHSYTSNGSSSSDVAGQVRGLLAQGYRISAEVADKRRFQTSSWQSLPALSGQSEATVLPALESILQEHKGKYVRLIGIDPAARRRVAELLIQKP	3	
B1	3	
GWLAPEQQQRIYRGNAS (the last 17 residues of CcaA, Synechococcus elongatus PCC 7942; residues 1-255 of CcaA replaced by EGFP-GSGGS; EGFP amplified from pEF-gfp (Addgene); source: E. coli BL21 (DE3), purified (Ni-NTA, H6Ub cleaved, SEC); not shown: EGFP with GSGGS linker, N-terminal, kept; His6-ubiquitin, N-terminal, cleaved) [EGFPC2_(17)]		Kd [7]: ~2 µM; stoichiometry N [7]: ~2.7 per γCAL198 trimer
γCAL domain of M58 (residues 1-181) (domain or fragment, Synechococcus elongatus PCC 7942, UniProt Q03513 1-181, looked up, residues 1-15 disordered in the crystals; also called γCAL181; source: E. coli BL21 (DE3), purified (Ni-NTA, H6Ub cleaved, SEC); not shown: His6-ubiquitin, N-terminal, cleaved) MPSPTTVPVATAGRLAEPYIDPAAQVHAIASIIGDVRIAAGVRVAAGVSIRADEGAPFQVGKESILQEGAVIHGLEYGRVLGDDQADYSVWIGQRVAITHKALIHGPAYLGDDCFVGFRSTVFNARVGAGSVIMMHALVQDVEIPPGRYVPSGAIITTQQQADRLPEVRPEDREFARHIIG	3	
